T1: recombinant human CD123-Fc (human, UniProt P26951 19-305)
T1 construct: not shown: Fc part of CD123-Fc
T1 sequence: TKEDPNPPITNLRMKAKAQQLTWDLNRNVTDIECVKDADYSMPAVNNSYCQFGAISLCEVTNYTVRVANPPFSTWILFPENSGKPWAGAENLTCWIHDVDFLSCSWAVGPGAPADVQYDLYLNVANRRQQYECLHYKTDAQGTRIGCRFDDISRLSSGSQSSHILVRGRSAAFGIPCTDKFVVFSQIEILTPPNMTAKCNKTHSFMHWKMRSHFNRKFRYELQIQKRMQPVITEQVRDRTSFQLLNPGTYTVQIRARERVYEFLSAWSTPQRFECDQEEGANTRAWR

B1: SEQ ID NO: 596 (designed binder)
chain: MGSWIEFDERLDAIDFRLWALGGSEAELAWFEGWIAEFESDLQLYKGKGNPEVEALNEEANAIFHELSAYRHN
notes: D domain, on phage
B2: SEQ ID NO: 612 (designed binder)
chain: MGSWYEFFDRLDAIDERLWALGGSEAELAWFEAEIAEFEMELQGYKGKGNPEVEALDVEAHAIEMELFAYRHN
notes: D domain, on phage
B3: SEQ ID NO: 601 (designed binder)
chain: MGSWFEFGDRLEAIDERLYALGGSEAELAQFEWWIAEFEHHLQDYKGKGNPEVEALEYEADAIWGELHAYRHN
notes: D domain, on phage
B4: SEQ ID NO: 584 (designed binder)
chain: MGSWHEFEERLMAIEDRLWALGGSEAELAEFEQWIALFEYDLQEYKGKGNPEVEALGMEAFAINNELSAYRHN
notes: D domain, on phage
B5: SEQ ID NO: 589 (designed binder)
chain: MGSWEEFEDRLFAIDSRLWALGGSEAELAEFENIIASFEEVLQEYKGKGNPEVEALSVEAFAIDRELGAYRHN
notes: D domain, on phage
B6: SEQ ID NO: 581 (designed binder)
chain: MGSWYEFSSRLNAIDDRLWALGGSEAELAYFETDIADFESLLQWYKGKGNPEVEALLNEADAIDYELYAYRHN
notes: D domain, on phage
B7: SEQ ID NO: 585 (designed binder)
chain: MGSWYEFEERLDAIEDRLIALGGSEAELAIFEDIIAFFEQDLQYYKGKGNPEVEALEMEAEAISIELDAYRHN
notes: D domain, on phage
B8: SEQ ID NO: 603 (designed binder)
chain: MGSWVEFMDRLEAIEERLSALGGSEAELAFFEWEIAEFEEHLQVYKGKGNPEVEALEWEALAITEELAAYRHN
notes: D domain, on phage
B9: SEQ ID NO: 604 (designed binder)
chain: MGSWIEFMDRLWAIDQRLWALGGSEAELAWFEEEIAWFEEELQVYKGKGNPEVEALEWEATAISEELWAYRHN
notes: D domain, on phage
B10: SEQ ID NO: 586 (designed binder)
chain: MGSWHEFEKRLYAIEDRLIALGGSEAELAWFEDSIAWFEWDLQMYKGKGNPEVEALNEEADAIYQELDAYRHN
notes: D domain, on phage
B11: SEQ ID NO: 618 (designed binder)
chain: MGSWWEFNARLDAIEDRLMALGGSEAELAYFEDIIASFENILQQYKGKGNPEVEALWYEAYAIEKELNAYRHN
notes: D domain, on phage
B12: SEQ ID NO: 619 (designed binder)
chain: MGSWIEFWNRLEAIEERLYALGGSEAELAYFEDEIAEFEIYLQQYKGKGNPEVEALKHEAEAINKELMAYRHN
notes: D domain, on phage
B13: SEQ ID NO: 615 (designed binder)
chain: MGSWEEFHMRLIAIDERLWALGGSEAELAGFEESIAYFESQLQDYKGKGNPEVEALDYEAHAIWRELYAYRHN
notes: D domain, on phage
B14: SEQ ID NO: 591 (designed binder)
chain: MGSWVEFDNRLFAIDERLWALGGSEAELAWFEEEIASFEDNLQKYKGKGNPEVEALQLEAFAIMEELDAYRHN
notes: D domain, on phage
B15: SEQ ID NO: 605 (designed binder)
chain: MGSWEEFNWRLRAIDERLFALGGSEAELAWFEYDIAEFEEQLQVYKGKGNPEVEALRVEAAAIAEELYAYRHN
notes: D domain, on phage
B16: SEQ ID NO: 613 (designed binder)
chain: MGSWYEFMGRLEAIDERLQALGGSEAELAWFEHEIAEFEWSLQWYKGKGNPEVEALRFEAGAIPWELWAYRHN
notes: D domain, on phage
B17: SEQ ID NO: 580 (designed binder)
chain: MGSWIEFFHRLDAIQDRLDALGGSEAELAYFEWAIADFEHMLQLYKGKGNPEVEALQFEAFAIEGELYAYRHN
notes: D domain, on phage
B18: SEQ ID NO: 592 (designed binder)
chain: MGSWFEFDDRLEAIFDRLWALGGSEAELAMFEFAIAEFEDALQEYKGKGNPEVEALYEEAVAIDEELYAYRHN
notes: D domain, on phage
B19: SEQ ID NO: 599 (designed binder)
chain: MGSWYEFQERLDAIDSRLWALGGSEAELAWFEYTIAEFEKELQMYKGKGNPEVEALGTEAVAISEELMAYRHN
notes: D domain, on phage
B20: SEQ ID NO: 595 (designed binder)
chain: MGSWTEFDERLDAIDWRLEALGGSEAELAWFEGDIALFEQYLQVYKGKGNPEVEALMEEADAIKAELDAYRHN
notes: D domain, on phage
B21: SEQ ID NO: 600 (designed binder)
chain: MGSWEEFEDRLWAIDGRLYALGGSEAELAWFEQWIATFEEDLQDYKGKGNPEVEALEYEASAIFEELEAYRHN
notes: D domain, on phage
B22: SEQ ID NO: 609 (designed binder)
chain: MGSWWEFEDRLYAIDDRLWALGGSEAELAQFEREIAQFEIWLQEYKGKGNPEVEALDDEATAINSELFAYRHN
notes: D domain, on phage
B23: SEQ ID NO: 607 (designed binder)
chain: MGSWYEFEWRLDAIDRRLWALGGSEAELADFEEEIADFEWMLQNYKGKGNPEVEALVDEASAIQTELWAYRHN
notes: D domain, on phage
B24: SEQ ID NO: 597 (designed binder)
chain: MGSWWEFDSRLDAIDFRLWALGGSEAELAWFEVEIADFEDWLQLYKGKGNPEVEALWHEADAIVTELYAYRHN
notes: D domain, on phage
B25: SEQ ID NO: 617 (designed binder)
chain: MGSWDEFAMRLEAIQARLFALGGSEAELAIFEDEIAFFETMLQDYKGKGNPEVEALEYEAAAIEAELGAYRHN
notes: D domain, on phage
B26: SEQ ID NO: 590 (designed binder)
chain: MGSWEEFLFRLEAIQDRLWALGGSEAELAWFEYEIASFEDVLQSYKGKGNPEVEALSTEAKAIDYELFAYRHN
notes: D domain, on phage
B27: SEQ ID NO: 611 (designed binder)
chain: MGSWEEFEWRLDAIDERLWALGGSEAELATFEYEIAIFENELQQYKGKGNPEVEALDSEAYAIERELGAYRHN
notes: D domain, on phage
B28: SEQ ID NO: 593 (designed binder)
chain: MGSWFEFDARLMAINDRLWALGGSEAELAAFEYHIALFEDQLQMYKGKGNPEVEALTLEAVAINEELWAYRHN
notes: D domain, on phage
B29: SEQ ID NO: 606 (designed binder)
chain: MGSWWEFEIRLDAIDERLWALGGSEAELAWFEQSIAFFENDLQVYKGKGNPEVEALRWEANAIIEELFAYRHN
notes: D domain, on phage
B30: SEQ ID NO: 614 (designed binder)
chain: MGSWVEFSNRLDAIWERLQALGGSEAELAYFEWEIAEFEWELQSYKGKGNPEVEALNAEADAIEWELEAYRHN
notes: D domain, on phage
B31: SEQ ID NO: 598 (designed binder)
chain: MGSWYEFDERLDAIFDRLWALGGSEAELAYFEQVIATFEKTLQRYKGKGNPEVEALDTEAKAISWELDAYRHN
notes: D domain, on phage
B32: SEQ ID NO: 582 (designed binder)
chain: MGSWFEFEYRLDAIIDRLFALGGSEAELAEFESMIANFEYSLQEYKGKGNPEVEALYFEADAIVDELTAYRHN
notes: D domain, on phage
B33: SEQ ID NO: 587 (designed binder)
chain: MGSWIEFEDRLDAITDRLWALGGSEAELAEFEHQIAFFEEDLQWYKGKGNPEVEALHMEAEAIMEELGAYRHN
notes: D domain, on phage
B34: SEQ ID NO: 616 (designed binder)
chain: MGSWWEFKYRLDAICFRLAALGGSEAELASFEDEIAYFEEDLQGYKGKGNPEVEALDYEALAIWDELAAYRHN
notes: D domain, on phage
B35: SEQ ID NO: 602 (designed binder)
chain: MGSWFEFNDRLDAISERLSALGGSEAELAYFEWQIAVFEKTLQNYKGKGNPEVEALTLEANAIFEELEAYRHN
notes: D domain, on phage
B36: SEQ ID NO: 610 (designed binder)
chain: MGSWDEFEFRLEAIDSRLWALGGSEAELAVFEYEIAQFEFMLQEYKGKGNPEVEALGMEAWAIENELFAYRHN
notes: D domain, on phage
B37: SEQ ID NO: 588 (designed binder)
chain: MGSWMEFEDRLMAIVDRLWALGGSEAELADFEWNIAMFEEELQWYKGKGNPEVEALGDEAEAIEWELYAYRHN
notes: D domain, on phage
B38: SEQ ID NO: 608 (designed binder)
chain: MGSWYEFVYRLRAIDERLDALGGSEAELAMFEFEIAFFEDQLQRYKGKGNPEVEALVDEAQAIDFELFAYRHN
notes: D domain, on phage
B39: SEQ ID NO: 594 (designed binder)
chain: MGSWVEFDSRLAAIDYRLEALGGSEAELAWFEYTIANFEHTLQMYKGKGNPEVEALVYEAHAIATELQAYRHN
notes: D domain, on phage
B40: SEQ ID NO: 583 (designed binder)
chain: MGSWLEFEYRLDAIYDRLFALGGSEAELAAFEQDIADFEKYLQYYKGKGNPEVEALWEEADAIMWELFAYRHN
notes: D domain, on phage

The assay addresses T1, recombinant human CD123-Fc. Put plainly: phage ELISA, captured CD123-Fc. Put shortly: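 Phage from BCMA panning colonies were rescued with VCSM13 helper phage and diluted 5× in blocking buffer. Plates coated with anti-human IgG1-Fc captured 5 nM target-Fc or IgG1-Fc, and binding was detected with HRP anti-M13. Ratio = A450 target/A450 IgG1-Fc, averaged over the clone's wells.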
Background: In an ELISA, binding on a coated surface is turned into a signal by an enzyme label.
Take B1: the ELISA_avg was 7 ratio A450 target/IgG1-Fc. In the case of B2, the ELISA_avg was determined as 3.7 ratio A450 target/IgG1-Fc.

B3: the ELISA_avg was determined as 4.5 ratio A450 target/IgG1-Fc. To B4 belongs 5.8 ratio A450 target/IgG1-Fc; to B5, 3.7 ratio A450 target/IgG1-Fc; to B6, 3.8 ratio A450 target/IgG1-Fc.

With B7, the ELISA_avg was determined as 4.1 ratio A450 target/IgG1-Fc. To B8 belongs 4 ratio A450 target/IgG1-Fc; to B9, 6.5 ratio A450 target/IgG1-Fc; to B10, 3.6 ratio A450 target/IgG1-Fc.

On to B11, for which the ELISA_avg came out at 3.4 ratio A450 target/IgG1-Fc. To B12 belongs 5.2 ratio A450 target/IgG1-Fc; to B13, 3.9 ratio A450 target/IgG1-Fc; to B14, 3.3 ratio A450 target/IgG1-Fc.

With B15, the ELISA_avg turned out to be 5.4 ratio A450 target/IgG1-Fc. On to B16, for which the ELISA_avg is 3.5 ratio A450 target/IgG1-Fc.

As for B17, the ELISA_avg is 3.5 ratio A450 target/IgG1-Fc. Under B18 stands 4.1 ratio A450 target/IgG1-Fc; under B19, 5.5 ratio A450 target/IgG1-Fc; under B20, 4.5 ratio A450 target/IgG1-Fc. Under B21 stands 9.4 ratio A450 target/IgG1-Fc; under B22, 5.5 ratio A450 target/IgG1-Fc.

Consider B23, for which the ELISA_avg was 10 ratio A450 target/IgG1-Fc.

Turning to B24, the ELISA_avg worked out at 3.2 ratio A450 target/IgG1-Fc. Under B25 stands 3.7 ratio A450 target/IgG1-Fc; under B26, 8.2 ratio A450 target/IgG1-Fc; under B27, 4.3 ratio A450 target/IgG1-Fc.

Regarding B28, the ELISA_avg was found to be 4 ratio A450 target/IgG1-Fc. Regarding B29, the ELISA_avg is 3.2 ratio A450 target/IgG1-Fc.

As for B30, the ELISA_avg turned out to be 5.1 ratio A450 target/IgG1-Fc. For B31, the ELISA_avg came to 3 ratio A450 target/IgG1-Fc.

Turning to B32, the ELISA_avg stood at 4 ratio A450 target/IgG1-Fc. Regarding B33, the ELISA_avg was 9.5 ratio A450 target/IgG1-Fc. Take B34: the ELISA_avg is 3.1 ratio A450 target/IgG1-Fc. Under B35 stands 3.9 ratio A450 target/IgG1-Fc; under B36, 3.6 ratio A450 target/IgG1-Fc. To B37 belongs 6.8 ratio A450 target/IgG1-Fc; to B38, 4.5 ratio A450 target/IgG1-Fc; to B39, 3.4 ratio A450 target/IgG1-Fc.

Consider B40, for which the ELISA_avg was 3.1 ratio A450 target/IgG1-Fc.
